Among the data in PMC4493278 (Cell Research, 2015) are Kd, binding result and stoichiometry N values, retold here.

One assay deals with Moesin FERM domain (UniProt P26038).
Assay [1] has as its target T1, Merlin FERM domain (Merlin-FERM, residues 1-320) (human, UniProt P35240 1-320).
T1 sequence (looked up): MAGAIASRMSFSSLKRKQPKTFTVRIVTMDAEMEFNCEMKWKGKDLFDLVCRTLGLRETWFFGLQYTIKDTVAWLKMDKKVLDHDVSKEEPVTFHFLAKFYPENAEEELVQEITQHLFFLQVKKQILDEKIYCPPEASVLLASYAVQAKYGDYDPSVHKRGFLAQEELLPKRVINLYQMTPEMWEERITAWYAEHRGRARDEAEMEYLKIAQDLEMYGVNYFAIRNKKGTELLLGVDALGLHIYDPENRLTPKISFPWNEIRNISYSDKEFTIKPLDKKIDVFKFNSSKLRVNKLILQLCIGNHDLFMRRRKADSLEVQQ
In words: ITC. A general note: Isothermal titration calorimetry measures the heat released or taken up as one component is titrated into another.

Assay [2] addresses T1, Merlin FERM domain (Merlin-FERM, …).
Assay [3] shares this target. In words: crystal structure.
Another assay deals with T2, S518D-Merlin (human, UniProt P35240 20-595, S518D).
T2 sequence (looked up): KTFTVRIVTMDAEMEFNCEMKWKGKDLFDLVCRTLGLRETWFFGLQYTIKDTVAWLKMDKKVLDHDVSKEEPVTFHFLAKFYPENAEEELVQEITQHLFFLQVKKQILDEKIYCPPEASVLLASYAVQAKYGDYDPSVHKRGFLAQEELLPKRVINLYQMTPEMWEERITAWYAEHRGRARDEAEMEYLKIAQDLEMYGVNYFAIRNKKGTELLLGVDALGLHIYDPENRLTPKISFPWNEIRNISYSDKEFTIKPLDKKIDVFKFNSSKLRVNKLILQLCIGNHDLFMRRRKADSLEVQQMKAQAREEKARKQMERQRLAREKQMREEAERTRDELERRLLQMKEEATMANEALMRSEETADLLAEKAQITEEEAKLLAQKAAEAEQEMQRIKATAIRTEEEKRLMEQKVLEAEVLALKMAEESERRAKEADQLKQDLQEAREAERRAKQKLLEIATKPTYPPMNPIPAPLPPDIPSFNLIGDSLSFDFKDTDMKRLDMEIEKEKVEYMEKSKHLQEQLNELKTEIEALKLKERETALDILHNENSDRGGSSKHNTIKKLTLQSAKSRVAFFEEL
In words: ITC.

Another assay concerns the target T3, S518A-Merlin (human, UniProt P35240 20-595, S518A).
T3 sequence (looked up): T2 sequence (looked up) with D499A
In words: pull-down.

For assay [4], the target named is entire C-terminal half of Merlin (human). Nature of the assay: SEC.

Where a chain is given by its changes, count along the chain named. Numbers in names are those of the source. Where “and” joins values, the source holds several entries; their conditions need not be identical. Identical values can stand only once. Like-named read-outs stand apart in the source and are kept apart here.

Chain of Moesin FERM domain (P26038 2-295): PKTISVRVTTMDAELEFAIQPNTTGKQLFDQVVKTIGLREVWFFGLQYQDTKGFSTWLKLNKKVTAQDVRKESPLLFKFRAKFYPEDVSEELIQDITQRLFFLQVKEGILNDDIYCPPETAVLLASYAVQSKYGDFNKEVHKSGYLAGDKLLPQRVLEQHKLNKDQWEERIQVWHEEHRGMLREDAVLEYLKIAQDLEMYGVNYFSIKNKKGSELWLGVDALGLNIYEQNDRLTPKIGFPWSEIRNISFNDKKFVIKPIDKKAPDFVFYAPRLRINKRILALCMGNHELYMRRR

Usually Kd stands for the equilibrium constant for the complex coming apart. High values mean lower affinity, low ones higher affinity. Moesin tail domain (domain or fragment): the equilibrium dissociation constant (Kd) with Moesin FERM domain amounted to 16 nM.

B1: N-terminus of Lats1 (Lats1-NT, residues 1-153) (domain or fragment, mouse, UniProt Q8BYR2 1-153, looked up)
chain: MKRGEKPEGYRQMRPKTFPASNYPGSSRQMLQEIRESLRNLSKPSDASKAEHNLNKMSTEDPRQVRNPPKFGTHHKALQEIRNSLLPFANETSSSRSPSEVNPQMFQDLQAAGFDEDMVIQALQKTNNRSIEAAVEFISKMSYQDPRREQMSA
In turn, B1 came in with a Kd in assay [1] of approximately 1400 nM.

B2: Merlin-CTD-S518D (domain or fragment, human, UniProt P35240 507-595, looked up)
chain: FDFKDTDMKRLDMEIEKEKVEYMEKSKHLQEQLNELKTEIEALKLKERETALDILHNENSDRGGSSKHNTIKKLTLQSAKSRVAFFEEL
As to B2, the Kd in assay [2] is approximately 4000 nM.

B3: Merlin-CTD bearing S518D/A585W substitutions (domain or fragment, human, UniProt P35240 507-595, looked up)
chain: B2 chain with A79W
As to B3, the binding result in assay [3] is recorded as “binds”.

B4: Merlin C-terminal tail domain (Merlin-CTD, residues 507-595) (domain or fragment, human, UniProt P35240 507-595, looked up)
chain: B2 chain with D12S
On to B4, for which the Kd in assay [2] is ~3000 nM and ~4000 nM. Consider PKFGPYQKALREIRYSLLPFANESGTSAAAEV (domain or fragment, human, UniProt Q9NRM7 68-99, looked up) [Lats2 FERM-binding domain (Lats2-FBD, residues 68-99)], for which the binding result in assay [3] is “binds”.

With ILDFNISLAMAKERAHQKRSSKRAPQMDWSKKNELFSNL (domain or fragment, human, UniProt O14745 320-358, looked up) [EBP50 C-terminal tail (EBP50-CT, residues 320-358)], the Kd in assay [1] is approximately 80 nM. In addition, the binding result with S518D-Merlin is “binds”. Take PKFGTHHKALQEIRNSLLPFANETSSSRSPSE (domain or fragment, mouse, UniProt Q8BYR2 69-100, looked up) [Lats1 FERM-binding domain (Lats1-FBD, residues 69-100)]: in assay [3], the binding result is given as “binds”.

For PKFGTHHKALQEIRNSLLPFANETSSSRSPSE (domain or fragment, mouse, UniProt Q8BYR2 69-100, looked up) [GST-tagged Lats1-FBD], in the assay with S518A-Merlin, the binding result was “binds”.

B5: elongated α-helix-rich region of AMOT (residues 404-728 of AMOT-p130) (domain or fragment)
chain: ADPFAMVSRAQQMVEILSDENRNLRQELDGCYEKVARLQKVETEIQRVSEAYENLVKSSSKREALEKAMRNKLEGEIRRMHDFNRDLRDRLETANKQLAEKEYEGSEDTRKTISQLFAKHKENQREKEKLEAELATARSTNEDQRRHIEIRDQALSNAQAKVVKLEEELKKKQVYVDKVEKMQQALVQLQAACEKREQLEHRLRTRLERELESLRIQQRQGNSQPTNASEYNAAALMELLREKEERILALEADMTKWEQKYLEENVMRHFALDAAATVAAQRDTTVISHSPNTSYDTALEARIQKEEEEILMANKRCLDMEGRIK
The stoichiometry N is a count of units in the complex or per binding partner. B5 displayed a stoichiometry N in assay [4] of 1.
